B1: Merlin (Homo sapiens), P35240-3 (parent)
chain: MAGAIASRMSFSSLKRKQPKTFTVRIVTMDAEMEFNCEMKWKGKDLFDLVCRTLGLRETWFFGLQYTIKDTVAWLKMDKKVLDHDVSKEEPVTFHFLAKFYPENAEEELVQEITQHLFFLQVKKQILDEKIYCPPEASVLLASYAVQAKYGDYDPSVHKRGFLAQEELLPKRVINLYQMTPEMWEERITAWYAEHRGRARDEAEMEYLKIAQDLEMYGVNYFAIRNKKGTELLLGVDALGLHIYDPENRLTPKISFPWNEIRNISYSDKEFTIKPLDKKIDVFKFNSSKLRVNKLILQLCIGNHDLFMRRRKADSLEVQQMKAQAREEKARKQMERQRLAREKQMREEAERTRDELERRLLQMKEEATMANEALMRSEETADLLAEKAQITEEEAKLLAQKAAEAEQEMQRIKATAIRTEEEKRLMEQKVLEAEVLALKMAEESERRAKEADQLKQDLQEAREAERRAKQKLLEIATKPTYPPMNPIPAPLPPDIPSFNLIGDSLSFDFKDTDMKRLSMEIEKEKVEYMEKSKHLQEQLNELKTEIEALKLKERETALDILHNENSDRGGSSKHNTIKKPQAQGRRPICI

Key:
[1] = variants of: B1; details: with eif3c_human EIF3C
[2] = variants of: B1; details: with HGS
[3] = variants of: B1; details: with HGS
[4] = variants of: B1; details: with NF2, P35240-1
[5] = variants of: B1; details: with sptb2_human SPTBN1, Q01082
sptb2_human SPTBN1, Q01082, sequence (Q01082 whole entry): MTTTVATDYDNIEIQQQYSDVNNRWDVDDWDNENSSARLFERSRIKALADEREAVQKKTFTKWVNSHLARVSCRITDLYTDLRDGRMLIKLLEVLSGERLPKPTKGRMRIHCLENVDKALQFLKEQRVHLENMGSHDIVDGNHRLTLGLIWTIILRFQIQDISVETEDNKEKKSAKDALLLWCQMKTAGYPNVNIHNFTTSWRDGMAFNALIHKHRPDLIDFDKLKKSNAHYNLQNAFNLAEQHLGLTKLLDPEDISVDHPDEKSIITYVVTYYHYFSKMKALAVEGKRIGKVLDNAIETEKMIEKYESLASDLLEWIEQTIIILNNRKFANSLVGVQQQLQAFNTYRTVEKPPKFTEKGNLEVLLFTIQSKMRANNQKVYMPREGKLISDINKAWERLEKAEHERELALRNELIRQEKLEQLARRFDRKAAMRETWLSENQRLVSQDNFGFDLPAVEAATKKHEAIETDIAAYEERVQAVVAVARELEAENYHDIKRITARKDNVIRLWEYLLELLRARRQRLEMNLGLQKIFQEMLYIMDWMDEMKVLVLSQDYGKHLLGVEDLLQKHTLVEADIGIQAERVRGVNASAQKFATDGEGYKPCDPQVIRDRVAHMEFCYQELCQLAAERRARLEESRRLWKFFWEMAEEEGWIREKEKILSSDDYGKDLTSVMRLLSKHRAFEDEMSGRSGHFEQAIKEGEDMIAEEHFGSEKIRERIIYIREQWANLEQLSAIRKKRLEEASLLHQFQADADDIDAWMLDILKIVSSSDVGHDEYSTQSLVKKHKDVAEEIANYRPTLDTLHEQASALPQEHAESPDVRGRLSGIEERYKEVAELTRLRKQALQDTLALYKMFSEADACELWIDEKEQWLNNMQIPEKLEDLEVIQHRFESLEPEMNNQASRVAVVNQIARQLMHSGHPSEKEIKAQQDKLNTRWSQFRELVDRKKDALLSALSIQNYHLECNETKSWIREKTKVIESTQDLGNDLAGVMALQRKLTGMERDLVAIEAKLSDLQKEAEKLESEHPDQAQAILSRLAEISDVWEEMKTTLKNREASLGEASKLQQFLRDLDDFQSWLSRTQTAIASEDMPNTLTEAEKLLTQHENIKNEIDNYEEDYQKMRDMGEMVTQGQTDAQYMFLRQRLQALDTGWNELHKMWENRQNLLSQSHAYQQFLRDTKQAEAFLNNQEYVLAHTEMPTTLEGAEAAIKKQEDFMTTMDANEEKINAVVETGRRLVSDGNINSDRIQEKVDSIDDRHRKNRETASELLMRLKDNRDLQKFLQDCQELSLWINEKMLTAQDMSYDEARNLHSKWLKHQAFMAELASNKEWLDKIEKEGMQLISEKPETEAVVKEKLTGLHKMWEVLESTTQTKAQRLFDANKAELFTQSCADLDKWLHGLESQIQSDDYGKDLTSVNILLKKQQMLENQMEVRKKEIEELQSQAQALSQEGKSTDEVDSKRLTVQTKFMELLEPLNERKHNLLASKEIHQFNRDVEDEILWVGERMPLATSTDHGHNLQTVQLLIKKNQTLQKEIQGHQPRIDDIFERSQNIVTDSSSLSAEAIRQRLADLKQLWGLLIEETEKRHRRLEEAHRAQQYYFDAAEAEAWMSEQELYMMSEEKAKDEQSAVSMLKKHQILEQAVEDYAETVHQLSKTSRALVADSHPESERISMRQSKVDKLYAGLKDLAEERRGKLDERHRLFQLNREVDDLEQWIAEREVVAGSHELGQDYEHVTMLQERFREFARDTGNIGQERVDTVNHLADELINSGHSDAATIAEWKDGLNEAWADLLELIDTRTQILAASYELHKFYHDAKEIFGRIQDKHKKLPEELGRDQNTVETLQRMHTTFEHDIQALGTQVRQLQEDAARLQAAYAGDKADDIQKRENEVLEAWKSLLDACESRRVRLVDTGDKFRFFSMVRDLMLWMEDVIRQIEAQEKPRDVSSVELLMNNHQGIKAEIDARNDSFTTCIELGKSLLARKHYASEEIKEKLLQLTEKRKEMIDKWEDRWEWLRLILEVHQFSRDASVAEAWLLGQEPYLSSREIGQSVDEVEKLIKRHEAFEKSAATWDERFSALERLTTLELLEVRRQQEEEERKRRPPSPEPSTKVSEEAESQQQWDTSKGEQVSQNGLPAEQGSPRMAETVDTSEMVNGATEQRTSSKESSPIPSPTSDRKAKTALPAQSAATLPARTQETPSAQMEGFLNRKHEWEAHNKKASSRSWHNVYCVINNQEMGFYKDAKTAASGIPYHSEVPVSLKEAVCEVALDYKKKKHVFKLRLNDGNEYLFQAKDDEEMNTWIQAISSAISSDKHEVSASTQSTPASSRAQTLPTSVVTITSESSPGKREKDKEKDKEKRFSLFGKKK

Row | Variant | effect of a mutation on the interaction [1] | effect of a mutation on the interaction [2] | effect of a mutation on the interaction [3] | effect of a mutation on the interaction [4] | effect of a mutation on the interaction [5]
1 | T352M | increasing interaction strength | with no effect | increasing interaction strength | decreasing interaction strength | decreasing interaction strength
2 | V219M | with no effect | with no effect | increasing interaction strength | with no effect | increasing interaction strength
3 | L535P | disrupting interaction strength | disrupting interaction strength | disrupting interaction strength | decreasing interaction strength | disrupting interaction strength
4 | L360P | increasing interaction strength | disrupting interaction strength | disrupting interaction strength | decreasing interaction strength | decreasing interaction strength
5 | K364I | disrupting interaction strength | disrupting interaction strength | disrupting interaction strength | decreasing interaction strength | disrupting interaction strength
6 | W41C | with no effect | with no effect | with no effect | decreasing interaction strength | increasing interaction strength
7 | Q538P | increasing interaction strength | disrupting interaction strength | disrupting interaction strength | decreasing interaction strength | disrupting interaction strength

Reference: IntAct's records for PubMed 11779178
